The text below walks through data of patent publication US20250289897A1 (Eli Lilly, published 2025).

By Kd is commonly meant the concentration at which binding is half-saturated. One may read the EC50 as the concentration needed to bring the measured effect to its halfway point.

Numbering of substitutions follows the chain as printed.

Assay [1] deals with T1, Human C1q (MS Biomedical) (human, UniProt P02745 23-245; P02746 28-253; P02747 29-245).
T1 construct: the three subunits are from general knowledge; also called complement component C1q; Clq
T1 sequence (P02745 23-245 limits assumed, chain 1 of 3): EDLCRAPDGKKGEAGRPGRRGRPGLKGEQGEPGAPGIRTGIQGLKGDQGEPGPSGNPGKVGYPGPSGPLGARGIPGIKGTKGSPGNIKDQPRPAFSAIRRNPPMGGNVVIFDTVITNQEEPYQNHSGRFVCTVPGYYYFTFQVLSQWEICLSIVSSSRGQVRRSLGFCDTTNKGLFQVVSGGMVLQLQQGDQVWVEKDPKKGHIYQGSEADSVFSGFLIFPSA
T1 sequence (P02746 28-253 limits assumed, chain 2 of 3): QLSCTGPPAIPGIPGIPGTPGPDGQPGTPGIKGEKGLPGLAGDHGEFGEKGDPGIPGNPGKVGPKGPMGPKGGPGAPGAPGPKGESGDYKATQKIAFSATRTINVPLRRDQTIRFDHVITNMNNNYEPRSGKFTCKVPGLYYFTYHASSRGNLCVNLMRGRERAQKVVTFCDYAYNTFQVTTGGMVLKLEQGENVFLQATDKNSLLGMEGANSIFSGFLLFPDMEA
T1 sequence (P02747 29-245 limits assumed, chain 3 of 3): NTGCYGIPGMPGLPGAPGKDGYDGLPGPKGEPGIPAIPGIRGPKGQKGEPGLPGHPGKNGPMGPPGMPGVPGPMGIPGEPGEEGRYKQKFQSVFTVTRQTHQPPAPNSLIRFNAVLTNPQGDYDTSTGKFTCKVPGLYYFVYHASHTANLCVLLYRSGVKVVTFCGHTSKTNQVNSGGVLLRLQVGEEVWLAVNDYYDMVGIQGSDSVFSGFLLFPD
Nature of the assay: C1q ELISA, plate coated with the antibody at 0.19-10 ug/mL, human C1q added at 10 ug/mL, sheep anti-human C1q-HRP detection, OD450. For orientation: An ELISA detects its analyte on a solid surface through an enzyme-linked reagent.
Protocol: Testing was performed in duplicate wells. The plate was sealed and incubated overnight at 4° C. The coating reagent was removed from each well and 200 μL/well of casein blocking reagent (Thermo) was added. The plate was sealed and incubated for 2 hours at room temperature (RT). Each well was washed 3 times with wash buffer (1xTBE with 0.05% Tween 20). One hundred microliters per well of Human Clq (MS Biomedical) at 10 μg/mL diluted in casein blocking reagent was added and incubated for 3 hours at RT. The plate was then washed three times with wash buffer before 100 L/well of a 1:800 dilution of Sheep anti-human C1q-HRP (Abcam #ab46191) in casein blocker was added and incubated for 1 hour at RT. The plate was washed 6 times with wash buffer, and 100 μL/well of TMB Substrate (Pierce) was added to each well and incubated for 7 minutes. One hundred microliters of 1 N HCl was added to each well to stop the reaction.

For assay [2], the target named is neonatal Fc receptor (FcRn) on FcRn Affinity Column Gen2 (Roche, Cat #09430857001) (UniProt P55899 24-297; P61769 21-119, limits assumed). Nature of the assay: FcRn-HPLC (Roche FcRn Affinity Column Gen2), peak width at 50% peak height.
neonatal Fc receptor (FcRn) on FcRn Affinity Column Gen2 (Roche, Cat #09430857001), sequence (P55899 24-297 limits assumed, chain 1 of 2): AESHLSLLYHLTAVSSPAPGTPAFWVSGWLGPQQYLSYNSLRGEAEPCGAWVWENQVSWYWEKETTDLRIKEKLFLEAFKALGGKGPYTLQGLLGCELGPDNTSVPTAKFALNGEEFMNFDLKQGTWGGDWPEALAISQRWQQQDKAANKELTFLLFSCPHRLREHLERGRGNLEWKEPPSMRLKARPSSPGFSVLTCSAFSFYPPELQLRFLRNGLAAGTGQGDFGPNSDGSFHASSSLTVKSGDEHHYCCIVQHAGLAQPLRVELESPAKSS
neonatal Fc receptor (FcRn) on FcRn Affinity Column Gen2 (Roche, Cat #09430857001), sequence (P61769 21-119 limits assumed, chain 2 of 2): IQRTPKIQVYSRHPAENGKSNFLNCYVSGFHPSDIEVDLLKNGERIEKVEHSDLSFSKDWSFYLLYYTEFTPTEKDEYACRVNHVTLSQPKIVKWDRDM
Protocol: Stock antibody solutions were diluted to 1 mg/mL into 20 mM MES, 140 mM NaCl, pH5.5. […] 20 μμL antibody injections were made followed by 10 minute column wash with 20 mM MES, 140 mM NaCl, pH5.5. Antibodies were then eluted by pH gradient elution into 20 mM Tris, 140 mM NaCl, pH8.8 over 90 minutes. Chromatograms were blank-subtracted to remove baseline drift.
Assay [3] addresses T2, CYNO LEPR-ECD-His (cynomolgus monkey, UniProt Q9MYL0 22-837 (rhesus entry)).
T2 construct: also called cynomolgus monkey LEPR
T2 sequence: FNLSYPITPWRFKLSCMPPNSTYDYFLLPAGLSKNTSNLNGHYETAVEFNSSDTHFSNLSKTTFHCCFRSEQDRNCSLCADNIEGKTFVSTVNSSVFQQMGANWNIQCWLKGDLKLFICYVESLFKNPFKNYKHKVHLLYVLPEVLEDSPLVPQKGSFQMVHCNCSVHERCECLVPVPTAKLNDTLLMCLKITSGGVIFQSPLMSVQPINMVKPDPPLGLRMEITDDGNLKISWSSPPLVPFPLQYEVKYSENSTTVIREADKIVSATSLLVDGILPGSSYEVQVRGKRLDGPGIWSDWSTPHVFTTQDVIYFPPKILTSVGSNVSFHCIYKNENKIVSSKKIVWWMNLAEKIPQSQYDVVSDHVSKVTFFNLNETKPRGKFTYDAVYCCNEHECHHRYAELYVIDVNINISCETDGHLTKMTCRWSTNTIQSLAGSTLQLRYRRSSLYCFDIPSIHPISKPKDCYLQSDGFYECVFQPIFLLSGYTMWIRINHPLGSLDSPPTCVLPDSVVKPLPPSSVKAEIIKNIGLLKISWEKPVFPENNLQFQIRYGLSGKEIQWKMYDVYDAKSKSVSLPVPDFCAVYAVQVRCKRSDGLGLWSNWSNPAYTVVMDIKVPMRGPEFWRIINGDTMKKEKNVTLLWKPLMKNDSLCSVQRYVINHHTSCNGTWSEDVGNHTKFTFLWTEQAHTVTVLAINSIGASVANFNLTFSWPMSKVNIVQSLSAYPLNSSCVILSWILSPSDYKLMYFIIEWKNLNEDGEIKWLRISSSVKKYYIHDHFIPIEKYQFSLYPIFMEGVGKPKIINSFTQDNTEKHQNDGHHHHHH
Nature of the assay: SPR (Biacore T200), antibody captured on Protein A/G chip, His-tagged LEPR-ECD as analyte, 1:1 fit; mean n=4, SD 2.6E-8. On the technique in general: SPR reads the build-up and loss of mass on a sensor chip optically.
Protocol: (§1) His-tagged ECDs were expressed and purified for each species and used for affinity analysis. A Protein A/G chip (Xantec, Cat #PAGHC200M) was utilized in this experiment with HBS-EP +0.01% BSA as running buffer. Antibodies were diluted to 1 μg/mL in running buffer and captured to a single flow cell on the chip surface. Each species of LEPR-ECD was diluted to 1000 nM in running buffer followed by 2-fold serial dilution. Each ligand concentration was injected over all flow cells at 100 L/min for 150 seconds followed by a 600 second dissociation phase. Regeneration was performed by injecting 10 mM glycine pH1.5 for 30 seconds at 10 μL/min. Data were analyzed in Biacore T200 Evaluation Software 3.1 by flow-cell 1 reference subtraction along with 0 nM blank subtraction. Data were fit globally using a “1:1 Binding” binding model to determine the on-rate (kₐ) and off-rate (kd) for each ligand. The affinity (KD) was calculated from the binding kinetics according to the relationship KD=kₐ/kd. Data reported as mean±standard deviation of experimental replicates.

Assay [4] concerns the target T3, cynomolgus monkey LEPR, full length, on HEK293-STAT3Luc-cmLepR2 cells (Macaca fascicularis).
T3 construct: whole, on cells; also called cyno-LEPR; Macaca fascicularis LEPR
Nature of the assay: flow cytometry on live HEK293-STAT3Luc-cmLepR2 cells, AF647 anti-human IgG; average of 4 runs, SD 0.6.
Protocol: Cells were incubated in blocking buffer for 10 mins at room temperature. After one rinse with PBS, cells were transferred to U-bottom 96-well plate at 200 μL and 0.2˜0.26^e6 cells/well. […] Cells were then incubated with 30 μL/well of antibodies diluted in flow buffer at 1000 nM as high dose followed by 9-point dose response including 5-fold dilutions not including 0 (totaling 9 concentrations for each Antibody) for 30 minutes at 4° C. in dark.

Assay [5] has as its target T4, human LEPR-ECD-His (human, UniProt P48357 22-839).
T4 sequence: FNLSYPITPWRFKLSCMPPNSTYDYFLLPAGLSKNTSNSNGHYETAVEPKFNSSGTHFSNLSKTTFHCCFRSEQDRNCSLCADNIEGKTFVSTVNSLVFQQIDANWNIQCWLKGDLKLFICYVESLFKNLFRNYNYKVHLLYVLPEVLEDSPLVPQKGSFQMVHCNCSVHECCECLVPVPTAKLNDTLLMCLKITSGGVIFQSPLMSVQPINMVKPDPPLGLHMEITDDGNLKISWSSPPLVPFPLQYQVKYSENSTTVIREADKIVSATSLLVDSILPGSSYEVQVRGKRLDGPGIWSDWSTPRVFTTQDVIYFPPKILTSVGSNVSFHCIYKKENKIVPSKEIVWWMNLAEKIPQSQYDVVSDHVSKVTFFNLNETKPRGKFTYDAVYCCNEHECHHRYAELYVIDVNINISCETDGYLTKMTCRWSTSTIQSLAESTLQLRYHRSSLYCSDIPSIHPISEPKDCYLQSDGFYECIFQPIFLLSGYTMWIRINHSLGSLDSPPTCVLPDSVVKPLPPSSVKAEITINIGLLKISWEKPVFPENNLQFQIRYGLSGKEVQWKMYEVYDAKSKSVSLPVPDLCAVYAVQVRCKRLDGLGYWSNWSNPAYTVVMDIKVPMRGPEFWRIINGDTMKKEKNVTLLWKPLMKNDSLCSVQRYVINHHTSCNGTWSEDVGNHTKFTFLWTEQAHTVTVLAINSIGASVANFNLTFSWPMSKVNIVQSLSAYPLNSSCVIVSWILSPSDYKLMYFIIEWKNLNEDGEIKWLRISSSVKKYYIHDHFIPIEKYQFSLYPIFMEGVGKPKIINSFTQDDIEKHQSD
Nature of the assay: SPR (Biacore T200), antibody captured on Protein A/G chip, His-tagged LEPR-ECD as analyte, 1:1 fit; mean n=3, SD 7.1E-9.
Protocol: as §1

Assay [6] concerns the target T2, CYNO LEPR-ECD-His. Nature of the assay: SPR (Biacore T200), antibody captured on Protein A/G chip, His-tagged LEPR-ECD as analyte, 1:1 fit; mean n=4, SD 1.7E-8.
Protocol: as §1
The target in assay [7] is T4, human LEPR-ECD-His. Nature of the assay: SPR (Biacore T200), antibody captured on Protein A/G chip, His-tagged LEPR-ECD as analyte, 1:1 fit; mean n=3, SD 6.8E-9.
Protocol: as §1

B1: Antibody A (antibody, human IgG1, kappa, L234A L235A)
heavy: EVQLLESGGGLVQPGGSLRLSCAASGFTFSSFAMSWVRQAPGKGLEWVSAISGSGGSTYSADSVRGRFTISRDNSKNTLYLQMNSLRAEDTAVYYCAKDQGDWDFLFDYWGQGTLVTVSSASTKGPSVFPLAPSSKSTSGGTAALGCLVKDYFPEPVTVSWNSGALTSGVHTFPAVLQSSGLYSLSSVVTVPSSSLGTQTYICNVNHKPSNTKVDKRVEPKSCDKTHTCPPCPAPEAAGGPSVFLFPPKPKDTLYITREPEVTCVVVSVSHEDPEVKFNWYVDGVEVHNAKTKPREEQYNSTYRVVSVLTVLHQDWLNGKEYKCKVSNKALPAPIEKTISKAKGQPREPQVYTLPPSREEMTKNQVSLTCLVKGFYPSDIAVEWESNGQPENNYKTTPPVLDSDGSFFLYSKLTVDKSRWQQGNVFSCSVMHEALHNHYTQKSLSLSPGK
light: DIQMTQSPSFLSASVGDRVTITCRASQGISSSLAWYQQKPGKAPKLLIYTASTLQSGVPSRFSGSGSGTEFTLTISSLQPEDFATYYCQQLIYYPFTFGQGTKVEIKRTVAAPSVFIFPPSDEQLKSGTASVVCLLNNFYPREAKVQWKVDNALQSGNSQESVTEQDSKDSTYSLSSTLTLSKADYEKHKVYACEVTHQGLSSPVTKSFNRGEC
notes: IgG1 mAb
With B1, in assay [1], the binding result was “no binding (tested: 10 ug/ml)”. In addition, the “Peak Width” value in assay [2] came out at 2.7 min.

B2: Antibody C (antibody, human IgG1, kappa, L234A L235A, V domains shown)
VH: EVQLLESGGGLVQPGGSLRLSCAASGFTFSSFAMSWVRQAPGKGLEWVSAISGSGGSTYSADSVRGRFTISRDNSKNTLYLQMNSLRAEDTAVYYCAKDQGDWDFLFDYWGQGTLVTVSS
VL: DIQMTQSPSFLSASVGDRVTITCRASQGISSSLAWYQQKPGKAPKLLIYTASTLQSGVPSRFSGSGSGTEFTLTISSLQPEDFATYYCQQLNYYPFSFGQGTKVEIKR
Turning to B2, the Kd is 47 nM in assay [3] and 26 nM in assay [5]. For the same molecule, in assay [4], the EC50 was found to be 0.83 nM.

B3: Antibody B (antibody, human IgG1, kappa, L234A L235A, V domains shown)
VH: B2 VH
VL: B2 VL with A25V, S97T
B3: the Kd in assay [6] was found to be 32 nM; in assay [7], 22 nM.
